Results taken from patent publication US20240287202A1 (XYPHOS BIOSCIENCES, published 2024).
Residue numbers refer to the chain shown, from its start. Names and notes keep the numbering of the source.

T1: Fc-wtNKG2D (wild-type NKG2D ectodomain fused to the C-terminus of human IgG1 Fc) (human, UniProt P26718 78-216)
T1 construct: range 78-216; Dimeric secreted protein from Expi293 cells; also called Fc-NKG2D; not shown: human IgG1 Fc
T1 sequence: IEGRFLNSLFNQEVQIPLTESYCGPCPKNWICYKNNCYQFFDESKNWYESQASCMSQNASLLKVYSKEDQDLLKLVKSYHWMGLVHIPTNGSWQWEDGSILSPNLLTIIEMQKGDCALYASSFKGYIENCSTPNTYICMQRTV

T2: mouse NKG2D (mouse, UniProt O54709 94-232, limits assumed)
T2 construct: also called mouse wild-type NKG2D
T2 sequence (looked up): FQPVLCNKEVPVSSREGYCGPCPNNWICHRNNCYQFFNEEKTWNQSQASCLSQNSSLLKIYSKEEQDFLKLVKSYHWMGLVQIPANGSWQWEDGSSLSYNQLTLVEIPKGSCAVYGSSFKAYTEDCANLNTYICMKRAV

T3: His-tagged monomeric ULBP2 R81W (human, UniProt Q9BZM5 29-212)
T3 construct: range 29-212; Construct limits are stated only for wild-type ULBP2-His; position 81 counts on the mature protein, not on the UniProt entry
T3 sequence: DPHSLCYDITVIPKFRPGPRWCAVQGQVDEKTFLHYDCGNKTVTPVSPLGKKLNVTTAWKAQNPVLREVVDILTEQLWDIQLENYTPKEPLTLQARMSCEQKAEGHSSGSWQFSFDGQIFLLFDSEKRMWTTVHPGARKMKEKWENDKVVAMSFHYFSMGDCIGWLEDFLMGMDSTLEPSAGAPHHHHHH

T4: A1-A2 domain of human ULBP3 with C-terminal 6x-His tag (monomer) (human, UniProt Q9BZM4 30-212)
T4 construct: range 30-212; also called MIC-His ligand
T4 sequence: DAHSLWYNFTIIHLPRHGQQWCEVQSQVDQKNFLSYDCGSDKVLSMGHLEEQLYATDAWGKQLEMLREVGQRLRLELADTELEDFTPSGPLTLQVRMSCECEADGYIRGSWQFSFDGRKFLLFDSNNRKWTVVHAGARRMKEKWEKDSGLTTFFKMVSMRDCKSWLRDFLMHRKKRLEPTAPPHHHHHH

T5: A1-A2 domain of human MICB with C-terminal 6x-His tag (monomer) (human, UniProt Q29980 24-205)
T5 construct: range 24-205; also called MIC-His ligand
T5 sequence: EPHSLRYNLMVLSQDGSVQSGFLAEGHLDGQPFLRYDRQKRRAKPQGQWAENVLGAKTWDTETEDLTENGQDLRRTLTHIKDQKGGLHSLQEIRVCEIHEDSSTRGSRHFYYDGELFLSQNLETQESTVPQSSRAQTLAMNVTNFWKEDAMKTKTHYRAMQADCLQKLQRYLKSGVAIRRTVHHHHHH

T6: A1-A2 domain of human MICA*001 with C-terminal 6x-His tag (monomer) (human, UniProt Q29983 24-205)
T6 construct: range 24-205; also called MIC-His ligand
T6 sequence: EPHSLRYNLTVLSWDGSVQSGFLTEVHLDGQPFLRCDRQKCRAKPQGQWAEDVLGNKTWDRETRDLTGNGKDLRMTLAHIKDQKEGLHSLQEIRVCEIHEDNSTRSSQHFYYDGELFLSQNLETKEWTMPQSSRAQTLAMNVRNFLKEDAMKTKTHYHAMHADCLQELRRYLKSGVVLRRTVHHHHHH

T7: MICB-Fc (R&D Systems) (human, UniProt Q29980 23-298, limits assumed)
T7 construct: Bought; also called Ligand-Fc fusion; not shown: Fc of the bought fusion; not described
T7 sequence (looked up): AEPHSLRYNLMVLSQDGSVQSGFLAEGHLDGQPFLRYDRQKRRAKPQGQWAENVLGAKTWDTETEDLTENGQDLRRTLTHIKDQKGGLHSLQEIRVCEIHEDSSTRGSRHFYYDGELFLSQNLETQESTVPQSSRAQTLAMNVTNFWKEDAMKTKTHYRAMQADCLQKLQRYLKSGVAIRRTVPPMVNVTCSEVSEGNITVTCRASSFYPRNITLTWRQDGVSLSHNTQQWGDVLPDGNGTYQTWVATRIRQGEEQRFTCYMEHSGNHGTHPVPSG

T8: ULBP4-Fc (R&D Systems) (human, UniProt Q8TD07 31-225, limits assumed)
T8 construct: Bought; also called Ligand-Fc fusion; not shown: Fc of the bought fusion; not described
T8 sequence (looked up): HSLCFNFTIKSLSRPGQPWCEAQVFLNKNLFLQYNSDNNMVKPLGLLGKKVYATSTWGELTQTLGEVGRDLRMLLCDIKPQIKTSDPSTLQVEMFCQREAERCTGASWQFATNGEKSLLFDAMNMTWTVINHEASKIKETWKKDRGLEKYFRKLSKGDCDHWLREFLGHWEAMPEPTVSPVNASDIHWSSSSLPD

T9: MICA-Fc (R&D Systems) (human, UniProt Q29983 24-308, limits assumed)
T9 construct: Bought; also called Ligand-Fc fusion; not shown: Fc of the bought fusion; not described
T9 sequence (looked up): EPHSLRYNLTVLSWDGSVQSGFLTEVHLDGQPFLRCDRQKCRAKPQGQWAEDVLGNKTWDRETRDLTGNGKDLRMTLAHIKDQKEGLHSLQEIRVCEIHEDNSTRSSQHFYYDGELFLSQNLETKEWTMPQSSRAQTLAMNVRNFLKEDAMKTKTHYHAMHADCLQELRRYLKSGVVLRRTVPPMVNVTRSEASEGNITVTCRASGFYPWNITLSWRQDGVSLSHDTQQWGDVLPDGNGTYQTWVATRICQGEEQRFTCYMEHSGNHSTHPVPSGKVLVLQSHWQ

T10: ULBP1-Fc (R&D Systems) (human, UniProt Q9BZM6 26-216)
T10 construct: Bought; also called Ligand-Fc fusion; not shown: Fc of the bought fusion; not described
T10 sequence (looked up): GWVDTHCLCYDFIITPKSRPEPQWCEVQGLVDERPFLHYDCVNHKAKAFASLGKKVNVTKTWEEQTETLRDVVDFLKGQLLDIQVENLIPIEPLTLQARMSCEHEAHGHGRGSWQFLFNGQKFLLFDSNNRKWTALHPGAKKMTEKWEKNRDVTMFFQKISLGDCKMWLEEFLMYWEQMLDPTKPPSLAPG

T11: ULBP3-Fc (R&D Systems) (human, UniProt Q9BZM4 30-217)
T11 construct: Bought; also called Ligand-Fc fusion; not shown: Fc of the bought fusion; not described
T11 sequence (looked up): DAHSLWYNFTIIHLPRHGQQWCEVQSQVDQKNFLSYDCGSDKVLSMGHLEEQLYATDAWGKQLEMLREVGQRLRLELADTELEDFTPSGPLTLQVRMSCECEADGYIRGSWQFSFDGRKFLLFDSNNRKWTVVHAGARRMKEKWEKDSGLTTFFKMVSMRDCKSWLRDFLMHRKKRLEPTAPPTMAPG

T12: ULBP2-Fc (R&D Systems) (human, UniProt Q9BZM5 26-217)
T12 construct: Bought; also called Ligand-Fc fusion; not shown: Fc of the bought fusion; not described
T12 sequence (looked up): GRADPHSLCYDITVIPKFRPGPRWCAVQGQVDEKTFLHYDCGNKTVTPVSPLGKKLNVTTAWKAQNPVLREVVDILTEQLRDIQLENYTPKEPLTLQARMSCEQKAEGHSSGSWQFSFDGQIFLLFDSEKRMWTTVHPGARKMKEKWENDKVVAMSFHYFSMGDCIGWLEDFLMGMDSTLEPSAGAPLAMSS

B1: Rituximab.HC-U2S3 MicAbody (U2S3 A1-A2 domain fused to the C-terminus of the rituximab heavy chain) (bispecific antibody, IgG1)
heavy (part 1 of 2): QVQLQQPGAELVKPGASVKMSCKASGYTFTSYNMHWVKQTPGRGLEWIGAIYPGNGDTSYNQKFKGKATLTADKSSSTAYMQLSSLTSEDSAVYYCARSTYYGGDWYFNVWGAGTTVTVSAA
heavy (part 2 of 2): GGGSEPHSLSYDITVIPKFRPGPRWCAVQGQVDEKTFLHYDCGQKTVTPVSPLGKKLQVTTAWKAQNPVLREVVDILTEQLWDIQLENYTPKEPLTLQARMSCEQKAEGHSSGSWQFSFDGQIFLLFDSEKRMWTTVHPGARKMKEKWENDKVVATKLYLWSMGDCIGWLEDFLMGMDSTLEPS
light: QIVLSQSPAILSASPGEKVTMTCRASSSVSYIHWFQQKPGSSPKPWIYATSNLASGVPVRFSGSGSGTSYSLTISRVEAEDAATYYCQQWTSNPPTFGGGTKLEIK
notes: IgG1 kappa, D265A/N297A; also called HC-fused MicAbody; Rit.HCd.S3; not shown: human IgG1 heavy-chain constant region, ADCC-deficient; human kappa light-chain constant region
B2: Rituximab (antibody, V domains shown)
VH: QVQLQQPGAELVKPGASVKMSCKASGYTFTSYNMHWVKQTPGRGLEWIGAIYPGNGDTSYNQKFKGKATLTADKSSSTAYMQLSSLTSEDSAVYYCARSTYYGGDWYFNVWGAGTTVTVSA
VL: QIVLSQSPAILSASPGEKVTMTCRASSSVSYIHWFQQKPGSSPKPWIYATSNLASGVPVRFSGSGSGTSYSLTISRVEAEDAATYYCQQWTSNPPTFGGGTKLEIKR
notes: also called Rituximab (ADCC-); Rituxumab (ADCC); copies: 2 + 2
B3: Fc-iNKG2D.YA (NKG2D ectodomain Y152A fused to the C-terminus of human IgG1 Fc) (Fc fusion)
chain: T1 sequence with Y79A
notes: range 78-216; it is not tied by words to this Fc fusion; not shown: human IgG1 Fc

What was measured:
[1] = target: T1, Fc-wtNKG2D (wild-type NKG2D ectodomain …); assay: Octet BLI; Fc-wtNKG2D captured on AHC tips, two-fold dilution series of MicAbody from 50 nM
Description: (§1) The y-axes corresponding to binding responses were set to the same scale for all sensograms.

[2] = target: B3; assay: Octet BLI; Fc-iNKG2D.YA captured on AHC tips, two-fold dilution series of MicAbody from 50 nM
Description: as §1

mouse NKG2D = target: T2, mouse NKG2D; assay: ELISA on mouse NKG2D, absorbance against nM MicAbody
[3] = target: T1, Fc-wtNKG2D (wild-type NKG2D ectodomain …); assay: Octet BLI; Fc-wtNKG2D captured on AHC tips, two-fold dilution series from 50 nM
Description: as §1

[4] = target: B3; assay: Octet BLI; Fc-iNKG2D.YA captured on AHC tips, two-fold dilution series from 50 nM
Description: as §1

[5] = target: T3, His-tagged monomeric ULBP2 R81W; assay: Octet BLI; Fc-iNKG2D.YA captured on AHC tips, dilution series of His-tagged monomeric ligand
Description: YA. […] YA were captured with anti-human IgG Fc capture (AHC) biosensor tips then associated with a dilution series of ligand. Data are from single experiments.

[6] = target: T4, A1-A2 domain of human ULBP3 with …; assay: as above
Description: (§2) Note that all axes are to the same scale (Binding-0 nm, 0.4 nm. 0.8 nm, 1.2 nm (y-axis); Time-0 s, 50 s, 100 s, 150 s, 200 s, 250 s, 300 s, 350 s (x-axis). Data is representative of a single experiment.

[7] = target: T5, A1-A2 domain of human MICB with …; assay: as above
Description: as §2

[8] = target: T6, A1-A2 domain of human MICA*001 with …; assay: as above
Description: as §2

MICB-Fc (R&D Systems) = target: T7, MICB-Fc (R&D Systems); assay: ELISA; ligand-Fc coated, biotinylated Fc-iNKG2D.YA, streptavidin-HRP (legend: the Fc-NKG2D is titrated; axis on the sheet: nM ligand-Fc)
ULBP4-Fc (R&D Systems) = target: T8, ULBP4-Fc (R&D Systems); assay: as above
MICA-Fc (R&D Systems) = target: T9, MICA-Fc (R&D Systems); assay: as above
ULBP1-Fc (R&D Systems) = target: T10, ULBP1-Fc (R&D Systems); assay: as above
ULBP3-Fc (R&D Systems) = target: T11, ULBP3-Fc (R&D Systems); assay: as above
ULBP2-Fc (R&D Systems) = target: T12, ULBP2-Fc (R&D Systems); assay: as above

Binder: B1
binding result [1]: no binding (tested: 50 nM (legend))
Kd [2]: 0.023 nM

Binder: B2
binding result (mouse NKG2D): no binding (tested: about 300 nM)
binding result [3]: no binding (tested: 50 nM (legend))
binding result [4]: no binding (tested: 50 nM (legend))

Binder: B3
Kd [5]: 3600 nM
binding result [6]: no binding (tested: 1.2 uM)
binding result [7]: no binding (tested: 0.3 uM)
binding result [8]: no binding (tested: 1.2 uM)
binding result (MICB-Fc (R&D Systems)): no binding (tested: 2000 nM)
binding result (ULBP4-Fc (R&D Systems)): no binding (tested: 2000 nM)
binding result (MICA-Fc (R&D Systems)): no binding (tested: 2000 nM)
binding result (ULBP1-Fc (R&D Systems)): no binding (tested: 2000 nM)
binding result (ULBP3-Fc (R&D Systems)): no binding (tested: 2000 nM)
binding result (ULBP2-Fc (R&D Systems)): no binding (tested: 2000 nM)
